# Assay results as given in the Immune Epitope Database (IEDB).
# What was measured:
# HLA-A*30:01 = test: IEDB peptide-MHC binding, purified MHC/competitive/radioactivity; filed as Kd, often an IC50 or EC50 that approximates it; ≥ and ≤ were set here for values at or beyond the usual limits of such assays
# HLA-A*02:01 [1] = test: IEDB peptide-MHC binding, purified MHC/competitive/fluorescence; ≥ and ≤ were set here for values at or beyond the usual limits of such assays
# HLA-A*01:01 [2] = test: IEDB peptide-MHC binding, purified MHC/direct/fluorescence; filed as Kd, often an IC50 or EC50 that approximates it; ≥ and ≤ were set here for values at or beyond the usual limits of such assays; settings: source organism: SARS-CoV1
# HLA-A*11:01 [3] = test: as above; settings: source organism: SARS-CoV1
# HLA-A*23:01 = test: IEDB peptide-MHC binding, purified MHC/competitive/radioactivity; filed as Kd, often an IC50 or EC50 that approximates it; ≥ and ≤ were set here for values at or beyond the usual limits of such assays
# HLA-A*24:02 = test: as above
# HLA-A*26:01 = test: as above
# HLA-A*29:02 = test: as above
# HLA-A*30:02 = test: as above
# HLA-A*01:01 [4] = test: as above
# HLA-A*03:01 [5] = test: as above; settings: source organism: Dengue virus 2 Jamaica/1409/1983
# HLA-A*11:01 [6] = test: as above; settings: source organism: Dengue virus 2 Jamaica/1409/1983
# HLA-A*02:01 [7] = test: IEDB peptide-MHC binding, purified MHC/direct/fluorescence; filed as Kd, often an IC50 or EC50 that approximates it; ≥ and ≤ were set here for values at or beyond the usual limits of such assays
# HLA-A*69:01 = test: as above
# HLA-A*02:01 [8] = test: IEDB peptide-MHC binding, purified MHC/competitive/fluorescence; filed as Kd, often an IC50 or EC50 that approximates it; ≥ and ≤ were set here for values at or beyond the usual limits of such assays
# HLA-B*07:02 = test: IEDB peptide-MHC binding, purified MHC/direct/fluorescence; filed as Kd, often an IC50 or EC50 that approximates it; ≥ and ≤ were set here for values at or beyond the usual limits of such assays; settings: source organism: Mus musculus
# HLA-B*40:01 = test: as above
# HLA-B*58:01 = test: as above; settings: source organism: Mammarenavirus lassaense
# HLA-A*03:01 [9] = test: as above; settings: source organism: Entamoeba histolytica HM-1:IMSS
# HLA-A*31:01 = test: as above; settings: source organism: Entamoeba histolytica HM-1:IMSS
# [10] = source organism: Dengue virus 3 Martinique/1243/1999
# [11] = source organism: Sudan ebolavirus
# [12] = source organism: Dengue virus 2 Jamaica/1409/1983
# [13] = source organism: SARS coronavirus Tor2
# [14] = source organism: Dengue virus 1 Brazil/97-11/1997
# [15] = source organism: Vaccinia virus WR
# [16] = source organism: Bacillus anthracis
# [17] = source organism: Escherichia coli O157:H7
# [18] = source organism: Dengue virus 4 Philippines/H241/1956
# [19] = source organism: Zaire ebolavirus
# [20] = source organism: Mycobacterium tuberculosis
# [21] = source organism: Vaccinia virus Copenhagen
# [22] = source organism: Lymphocytic choriomeningitis virus (strain Armstrong)
# [23] = source organism: Vaccinia virus
# [24] = source organism: Mammarenavirus juninense
# [25] = source organism: Mammarenavirus brazilense
sequence,measurement,setting,value
EEALKGLPIR,Kd,HLA-A*30:01; [10],609 nM
LTTPENITT,IC50,HLA-A*02:01 [1]; [11],≥ 157000 nM
IMAILCVPNA,Kd,HLA-A*30:01; [12],45 nM
TCDGNTFTY,Kd,HLA-A*01:01 [2],531 nM
same,Kd,HLA-A*11:01 [3],2480 nM
same,Kd,HLA-A*23:01; [13],≥ 77800 nM
same,Kd,HLA-A*24:02; [13],≥ 23900 nM
same,Kd,HLA-A*26:01; [13],≥ 38600 nM
same,Kd,HLA-A*29:02; [13],6.85 nM
same,Kd,HLA-A*30:02; [13],107 nM
HVTRGAVLMY,Kd,HLA-A*26:01; [14],233 nM
LTRYALHGK,Kd,HLA-A*30:01; [15],0.252 nM
TGPCPGDYA,IC50,HLA-A*02:01 [1]; [11],34900 nM
YSDRRWCFD,Kd,HLA-A*01:01 [4]; [14],1070 nM
RSTPFNMLK,Kd,HLA-A*03:01 [5],8.05 nM
same,Kd,HLA-A*11:01 [6],14.1 nM
same,Kd,HLA-A*30:01; [12],20.4 nM
KMNNDVFFM,Kd,HLA-A*02:01 [7]; [16],2.3 nM
same,Kd,HLA-A*69:01; [16],618 nM
KTSHAKVLV,Kd,HLA-A*30:01; [15],70.9 nM
ALSALLTKL,Kd,HLA-A*02:01 [8]; source organism: Human alphaherpesvirus 1 strain 17,313 nM
ESEIPNLDII,Kd,HLA-A*01:01 [4]; [12],7190 nM
FPEHIFPAL,Kd,HLA-A*69:01; source organism: Mus musculus,2330 nM
same,Kd,HLA-B*07:02,937 nM
same,Kd,HLA-B*40:01; source organism: Mus musculus,278 nM
VLFIHPLDA,Kd,HLA-A*02:01 [7]; [17],64.9 nM
same,Kd,HLA-A*69:01; [17],≥ 20000 nM
STAIELGAW,Kd,HLA-B*58:01,13.3 nM
HVFFSEYIV,Kd,HLA-A*30:01; [15],883 nM
LYPLAIPVTM,Kd,HLA-A*23:01; [18],336 nM
same,Kd,HLA-A*24:02; [18],1510 nM
GLYKSINVE,IC50,HLA-A*02:01 [1]; [15],39500 nM
RNRVSTPQG,Kd,HLA-A*30:01; [18],132 nM
SSTNQLRSV,IC50,HLA-A*02:01 [1]; [19],48200 nM
TEAEKQLQQ,IC50,HLA-A*02:01 [1]; [19],≥ 338000 nM
TLLQAAPTL,IC50,HLA-A*02:01 [1]; [20],50 nM
HAKSQCRPS,Kd,HLA-A*30:01; [21],854 nM
PMMCPFLFL,Kd,HLA-A*23:01; [22],220 nM
same,Kd,HLA-A*24:02; [22],484 nM
same,Kd,HLA-A*29:02; [22],208 nM
ETTKKDLGI,Kd,HLA-A*26:01; [14],≥ 54700 nM
MFGGVSWMV,Kd,HLA-A*23:01; [18],8790 nM
FLADKKMTL,Kd,HLA-A*02:01 [8]; [15],1.5 nM
KYWRQMIIK,Kd,HLA-A*03:01 [9],≥ 20000 nM
same,Kd,HLA-A*31:01,24.9 nM
DWVPTSRTTW,Kd,HLA-A*23:01; [14],6770 nM
same,Kd,HLA-A*24:02; [14],886 nM
NSLEVEDYGF,Kd,HLA-A*23:01; [12],5430 nM
GEGGVGSIL,Kd,HLA-B*40:01; [20],33 nM
MRSRWSRKML,Kd,HLA-A*30:01; [14],175 nM
RTRAINKYS,Kd,HLA-A*30:01; [15],12.7 nM
TNLEYKTLC,IC50,HLA-A*02:01 [1]; [23],≥ 773000 nM
NVLDEKYNT,IC50,HLA-A*02:01 [1]; [23],≥ 319000 nM
TEQAFYTRV,IC50,HLA-A*02:01 [1]; [15],≥ 98400 nM
SWLVHKQWFL,Kd,HLA-A*23:01; [14],173 nM
same,Kd,HLA-A*24:02; [14],2700 nM
VLPEEQDQNY,Kd,HLA-A*01:01 [4]; [10],11000 nM
same,Kd,HLA-A*30:02; [10],6870 nM
LSEKEENMV,Kd,HLA-A*01:01 [4]; [18],6470 nM
FMSNGEHVP,IC50,HLA-A*02:01 [1]; [15],57600 nM
IITASILLWY,Kd,HLA-A*01:01 [4]; [12],93.2 nM
GVVTRSGAY,Kd,HLA-A*26:01; [12],836 nM
same,Kd,HLA-A*30:02; [12],9.28 nM
TGILGSLGL,IC50,HLA-A*02:01 [1]; [11],≥ 92700 nM
FYQKTGEKS,Kd,HLA-A*01:01 [4]; [24],≥ 78100 nM
same,Kd,HLA-A*24:02; [24],≥ 58700 nM
same,Kd,HLA-A*26:01; [24],≥ 77900 nM
same,Kd,HLA-A*30:02; [24],≥ 40800 nM
KVKKKYAIG,Kd,HLA-A*30:01; [15],1.55 nM
ASTVIYRGT,IC50,HLA-A*02:01 [1]; [19],≥ 222000 nM
ETLEQMQRKH,Kd,HLA-A*26:01; [14],14000 nM
VLFRLENHA,Kd,HLA-A*02:01 [8]; source organism: Vaccinia virus WR 65-16,56.5 nM
LSLLQLPRD,IC50,HLA-A*02:01 [1]; [11],≥ 173000 nM
ASLFLPKLV,IC50,HLA-A*02:01 [1]; [19],11900 nM
MPQMKKILK,Kd,HLA-A*02:01 [8]; [15],2010 nM
SFFLWVIIL,IC50,HLA-A*02:01 [1]; [19],14600 nM
ITDFAGKTV,Kd,HLA-A*01:01 [4]; [10],≥ 20300 nM
LNGAMVEYV,IC50,HLA-A*02:01 [1]; [21],29100 nM
EFFECFKYLL,Kd,HLA-A*23:01; [25],624 nM
same,Kd,HLA-A*24:02; [25],1200 nM
same,Kd,HLA-A*29:02; [25],32.7 nM
